B1: human VZV neutralizing mAb 93k [modified: Cy5-conjugated] [human] / VZV glycoprotein B, wild type [varicella-zoster virus (VZV)] (parent complex)
chain 1: QVQLVQSGAEVKKPGSSVKVSCKASGGTFSNFAISWVRQAPGQGLEWMGRIMPLFVTSTYAQKFQGRVTISADASTSTAYMELSSLRSDDTAMYYCARDITAPGAAPTPLNFYGMDVWGQGTTVTVSS
chain 2: DIQMTQSPSTLSASVGDRVTITCRASQTISTWLAWYQQTPRKAPKLMIYKASILENGVPSRFSGSGSGTEFTLTISSLQPEDFATYYCQQYKSYPWTFGQGTKVEI
chain 3: VSPSSFYESLQVEPTQSEDITRSAHLGDGDEIREAIHKSQDAETKPTFYVCPPPTGSTIVRLEPTRTCPDYHLGKNFTEGIAVVYKENIAAYKFKATVYYKDVIVSTAWAGSSYTQITNRYADRVPIPVSEITDTIDKFGKCSSKATYVRNNHKVEAFNEDKNPQDMPLIASKYNSVGSKAWHTTNDTYMVAGTPGTYRTGTSVNCIIEEVEARSIFPYDSFGLSTGDIIYMSPFFGLRDGAYREHSNYAMDRFHQFEGYRQRDLDTRALLEPAARNFLVTPHLTVGWNWKPKRTEVCSLVKWREVEDVVRDEYAHNFRFTMKTLSTTFISETNEFNLNQIHLSQCVKEEARAIINRIYTTRYNSSHVRTGDIQTYLARGGFVVVFQPLLSNSLARLYLQELVRENTNHSPQKHPTRNTRSRRSVPVELRANRTITTTSSVEFAMLQFTYDHIQEHVNEMLARISSSWCQLQNRERALWSGLFPINPSALASTILDQRVKARILGDVISVSNCPELGSDTRIILQNSMRVSGSTTRCYSRPLISIVSLNGSGTVEGQLGTDNELIMSRDLLEPCVANHKRYFLFGHHYVYYEDYRYVREIAVHDVGMISTYVDLNLTLLKDREFMPLQVYTRDELRDTGLLDYSEIQRRNQMHSLRFYDIDKVVQYDSGTAIMQGMAQFFQGLGTAGQAVGHVVLGATGALLSTVHGFTTFLSNPFGALAVGLLVLAGLVAAFFAYRYVLKLKTSPMKALYPLTTKGLKQLPEGMDPFAEKPNATDTPIEEIGDSQNTEPSVNSGFDPDKFREAQEMIKYMTLVSAAERQESKARKKNKTSALLTSRLTGLALRNRRGYSRVRTENVTGV

Variants of: B1
Experiment: flow cytometry on cells; CHO-DSP1 cells transfected, permeabilized, immunostained with Cy5-conjugated mAb 93k; n = 2; parent: 100; read off a plot
In the case of chain 3 H456A, the percent of parent is reported as ~98 % WT. Work on chain 3 V457A yielded a percent of parent of ~98 % WT. Work on chain 3 E455A yielded a percent of parent of ~110 % WT.

Variants of: B1
Experiment: as above
Remark: another data set of the same source
chain 3 H456A was tested, and the screen value was ~120 % WT. Variant chain 3 V457A has a screen value of ~120 % WT. Variant chain 3 E455A has a screen value of ~120 % WT.

Variants of: B1
Experiment: flow cytometry on cells; CHO-DSP1 cells transfected, permeabilized, immunostained with Cy5-conjugated mAb 93k; n = 3; parent: 100; read off a plot
For chain 3 H456P, the screen value was ~120 % WT. Work on chain 3 V457P yielded a screen value of ~48 % WT. Variant chain 3 E455P has a screen value of ~110 % WT.

Variants of: B1
Experiment: as above
Remark: another data set of the same source
With chain 3 H456P the percent of parent was ~95 % WT. chain 3 V457P showed a percent of parent of ~18 % WT. With chain 3 E455P the percent of parent was ~70 % WT.
